The text below walks through data of publication PMC11479944.

For assay [1], the target named is GluA2 N-terminal domain (isolated GluA2 NTD) (rat). As to the kind of experiment: SEC-MALS; GluA2 NTD injected at 13 mg/mL and 1 mg/mL (legend; the text says 1-2 mg ml^-1), 100 µl samples, Superdex S200 10/300, 10 mM HEPES, 150 mM KCl, pH 7.5; only dimers seen, no step from dimers to tetramer. For orientation: SEC sorts molecules by how far they enter the pores of the column.

In assay [2] the target is rat GluA2flip(Q) isoform, tagged with a FLAG epitope near its C terminus (rat).

As a reminder, the stoichiometry N is the number of molecules, sites or subunits per partner or assembly. Consider “GluA2 N-terminal domain (isolated GluA2 NTD) (domain or fragment)”, for which the stoichiometry N in assay [1] was determined as 2. On to “rat GluA2flip(Q) isoform, tagged with a FLAG epitope near its C terminus (receptor)”, for which the recovery from desensitization, patch-clamp recordings of GluA2 expressed in HEK293 cells, switching from pH 7.4 to pH 5.5 (pH 6.4 also tested) in assay [2] turned out to be 2 fold.
